Experimental data published in the DeepSol protein solubility set.

assay: soluble on expression in E. coli; label from the status in PepcDB or PDB records

Row | Sequence | soluble on expression in E. coli
1 | MSPAWPLRPGQKVRVEFYKYPEEALHYFWEAEVVEVRPEGVLTLLPQGGVFHHVGKGRSLVLDHDAYVAFFPGAWYSGGPDVREGRVLEYYWNVQTPALWTGEAFRQYDLELDVKCRADHTCEVFDREEFLAKRPLYPRAWVEEAERAVEAVFRHMREGRWPVLPPGKPLPWMERI | soluble
2 | MSPPLVIKNGTVVNEDGMFKADVLVRNGIIVEVSPNITALPDTEVIDATDRLVIPGGIDPHTHMQMPYMGEVTKDDFLKGTEAAVAGGTTMIIDFCCPDHRNGESLIAGYNRWRSWADPKVCCDYGLSVAITMWRPETAEQMAIITSPEFGVNSFKFYMAYENTLMVRDDELFRGMQECAKLRALARVHCENGSVIKEKEIDLLAKGVTGPEGHTQSRPEEIEAEATNRACVLAAQANCPVYIVHVMTKGAASAISHHRAQGSIVFGEPIAAGLALDGSHYYNEDWLHAARYVMSPPLSRDPTTPELLMKLLAAGELHLTGTDNCTYDCRQKSLGKGNFTKIPNGINGVEDRMSVVWEKGVHSGIIDPMRYVSITSSTAAKIFNIYPRKGRIAVGSDADIVIFNPNATRTISKDTHHHNLDFNIFEGINCHGVAEVTISRGRIVWAHGKLQTVPGSGKFIPLLANSPFVFSTHEKREQKIQPRIVERLE | not soluble
3 | MSQATKRKHVVKEVLGEHIVPSNQQQIVRVLRTPGNNLHEVETAQGQRFLVSMPSKYRKNIWIKRGDFLIVDPIEEGEKVKAEISFVLCKDHVRSLQKEGFWPEAFSEVAEKHNNRNRQTQPELPAEPQLSGEESSSEDDSDLFVNTNRRQYHESEEESEEEEAA | soluble
4 | MSQKLKVVTIGGGSSYTPELLEGFIKRYHELPVSELWLVDVEGGKPKLDIIFDLCQRMIDNAGVPMKLYKTLDRREALKDADFVTTQLRVGQLPARELDERIPLSHGYLGQETNGAGGLFKGLRTIPVIFDIVKDVEELCPNAWVINFTNPAGMVTEAVYRHTGFKRFIGVCNIPIGMKMFIRDVLMLKDSDDLSIDLFGLNHMVFIKDVLINGKSRFAELLDGVASGQLKASSVKNIFDLPFSEGLIRSLNLLPCSYLLYYFKQKEMLAIEMGEYYKGGARAQVVQKVEKQLFELYKNPELKVKPKELEQRGGAYYSDAACEVINAIYNDKQAEHYVNIPHHGQIDNIPADWAVEMTCKLGRDGATPHPRITHFDDKVMGLIHTIKGFEIAASNAALSGEFNDVLLALNLSPLVHSDRDAELLAREMILAHEKWLPNFADCIAELKKAH | soluble
5 | MSQLCPCGSAVEYSLCCHPYVSGEKVAPDPEHLMRSRYCAFVMQDADYLIKTWHPSCGAAALRAELMAGFAHTEWLGLTVFEHCWQDADNIGFVSFVARFTEGGKTGAIIERSRFLKENGQWYYIDGTRPQFGRNDPCPCGSGKKFKKCCGQ | not soluble
6 | MSQLVFIVFQDNDDSRYLAEAVMEDNPDAEMQHQPAMIRIQAEKRLVINRETMEEKLGRDWDVQEMLINVISIAGNVDEDDDHFILEWN | soluble
7 | MSQNHVIELANTLKQRPIVCDYTGGRFRLTNEGLTYIGIDRDGTPLPPRWICAPLHIVAKTRDAQSGEWGRLLEWQDDDGITHQWAMPLALLQGDASDVRRELARLGLSISPHRTARDLLASYLQVFPVDARARCVDKLGWHGDVFVTASQCIGQSTEKIVFQNTNAIEPAMSIKGSVDKWRDSIGRLASGNSRLVFAISVALAPVLAKIVGEDSGGFHFRGASSSGKSTALSLAASVWGNPQSYCRLWRSTTNGLEGLAALHNDGLLILDELSQMDPREAGEAAYLLANGQGKTRASRTGTVRQSSRWSLFFLSAGEESLTALMAKSGQRINAGQEIRLADIEADAGCQMGIFETIHDQLSPASMALSLKKYSSGYHGAIGRAWLNQVVANRQTISRFITDTIQSFVDIVIQPDATGQIIRVARRFALVAAAGELASQFGLTGWKKGESFHAAKTCFIAWQDAFGVDGHREDRAIMAQVRAFFESHGASRFDNVNSPNNDKILNRAGFYHTDGEGFRIYMVLTETYKNELCKGFDQRTVTRVLLQAGWLKPASDGKLEHHHHHH | not soluble
8 | MSQQEISIINLDQLVSMTSVEIAELTGKEHKHVLRDIRNMVEELNGAKTEHCSTLSSELNGSKFGLVGEEVYKDAKGESRTMYRLDRKHTFILVAGYSVHLRAKCYDHIQTLERRVLQLEDQKKRAAIQSANRRGVTWGDYCKTYGLPAQKLMTALLQHRGLFRKNPISNEWSVNPKYSDCFRIIKPSDQKFSAGGYNFRFNAKGLEVFGKPEMVDKMRGILIAFTGTDQQKQEHLLKLAQSGKVEGI | not soluble
9 | MSQVTADALTAQVVAEYLYEHPDFFQHHPHLVERLALPTQTGAVSLAHVQLARQRQRIDSLEEEITALMSLAANNDRTFHEFMDLQEQILKCSSLQAVLHAIEAKARELNLRAYVRLLQRHDEKYGLASEDWQRFATNHFNGKSAYLGRLRQADRQRLLGDRPAPEMGSYVVLPLQRQAPLGILAFASEDGGHFQPSMDTLFLRHLALVLAHLIETLPWQSHDEERRTHPAS | not soluble
10 | MSQVTRVYAGRLAGMIVRGPDTDAIGRVRDVIVNVRPNGQPSRVLGLVVEMMNNRKIFLPMLRVAAIEPQEITLVSGSVSLRAYKPRNGEVAIIADIVGSKVHIDDPELDHLHGRPVEVADIELERTRTRDWAISRVAVIGERPKFGRRPELFTCPWSHVHGISAGGVGITDAAAELIAEFEDMRPADIATVLYELPDAQRANVAKELDDDRLADVLQEMSEDRQAELIETLDIERAADVLEEMDPDDAADLLGELDDDKADVLLELMDPEESAPVRRLMSFSPDTVGALMTPEPLILSPQTTVAEALALARNPDLPTSLASIVFVVRPPTATPTGKYLGCVHLQKLLREPPSELVSGILDPDLPPLWASDSQETAARYFATYNLVCGPVVDNDNHLLGAVAVDDLLDHMLPDDWRDTGIRPDETPKEV | not soluble
11 | MSQWHHPRSGWGRRRDFSGRSSAKKKGGNHIPERWKDYLPVGQRMPGTRFIAFKVPLQKSFEKKLAPEECFSPLDLFNKIREQNEELGLIIDLTYTQRYYKPEDLPETVPYLKIFTVGHQVPDDETIFKFKHAVNGFLKENKDNDKLIGVHCTHGLNRTGYLICIYLIDVEGVRPDDAIELFNRCRGHCLERQNYIEDLQNGPIRKNWNSSVPRSSDFEDSAHLMQPVHNKPVKQGPRYNLHQIQGHSAPRHFHTQTQSLQQSVRKFSENPHVYQRHHLPPPGPPGEDYSHRRYSWNVKPNASRAAQDRRRWYPYNYSRLSYPACWEWTQ | soluble
12 | MSQYGFVRVPREVEKAIPVVNAPRPRAVVPPPNSETARLVREYAAKELTAPVLNHSLRVFQYSVAIIRDQFPAWDLDQEVLYVTCLLHDIATTDKNMRATKMSFEYYGGILSRELVFNATGGNQDYADAVTEAIIRHQDLTGTGYITTLGLILQIATTLDNVGSNTDLIHIDTVSAINEQFPRLHWLSCFATVVDTENSRKPWGHTSSLGDDFSKKVICNTFGYN | not soluble
13 | MSREQAILVGCQLAGVDDERFRYSMEELASLVATANGEVVAEVTQKREAPHPATYIGKGKTEELAAIVKQLEPDVVIFNSELSPSQARNLTKMLGEVKVIDRTQLILDIFARRARSKEGKLQVELAQLEYMLPRLSGQGEALSRLGGGIGTRGPGETKLETDRRHIRRRIDDIKAELVRIAEHRGRYRERRQKNQAFQVALVGYTNAGKSTIFNRLTAADSLEENLLFATLDPLTRKCVLPCGYTVLVTDTVGFIQDLPTTLVAAFRSTLEEVTEADLLLHVVDSSHPDYVAHERTVSRLLAELGASSIPMVTVYNKSDQKASEFIPTTTASIMISALSAADIDRLRYFLEEAVKQQMARYDVSIPSGEGKLLARLKSDTILHEWHYNEQGGTYDCQGYVLPTHPLYGELQSFQR | soluble
14 | MSRFTDKVAIITGSSNGIGQATARLLASEGAKVTVTGRNAERLEETKNILLGAGVPEGNVLVVVGDITQESVQENLIKSTLDKFGKIDILVNNAGAGIPDAQGKSGVNQSIDTYHKTFELNVQSVIEMTQKARPHLAKTQGEIVNISSIGAGPAAQVASPYYSIAKAALDQYTRTAAIDLVPEGIRVNSVSPGAVSTGFSAVSRGLTEEKSKAFYDYLGAQRECIPRGFCAVPEDIAKVIAFLADRNASNYIIGQTIVADGGTSLILGAHAHGAKMMQAVFKEL | not soluble
15 | MSRPPPPRAASGAPLRPATVLGTMEMGRRMDASASAASVRAFLERGHSELDTAFMYCDGQSENILGGLGLGLGSGDCTVKIATKANPWEGKSLKPDSIRSQLETSLKRLQCPRVDLFYLHAPDHSTPVEETLCACHQLHQEGKFVELGLSNYASWEVAEICTLCKSNGWILPTVYQGMYNATTRQVEAELLPCLRHFGLRFYAYNPLAGGLLTGKYKYEDKDGKQPVGRFFGNNWAETYRNRFWKEHHFEAIALVEKALQTTYGTNAPRMTSAALRWMYHHSQLQGTRGDAVILGMSSLEQLEQNLAATEEGPLEPAVVEAFDQAWNMVAHECPNYFR | soluble
16 | MSRPRKRLAGTSGSDKGLSGKRTKTENSGEALAKVEDSNPQKTSATKNCLKNLSSHWLMKSEPESRLEKGVDVKFSIEDLKAQPKQTTCWDGVRNYQARNFLRAMKLGEEAFFYHSNCKEPGIAGLMKIVKEAYPDHTQFEKNNPHYDPSSKEDNPKWSMVDVQFVRMMKRFIPLAELKSYHQAHKATGGPLKNMVLFTRQRLSIQPLTQEEFDFVLSLEEKGPSLEHHHHHH | not soluble
17 | MSRRRHSDENDGGQPHKRRKTSDANETEDHLESLICKVGEKSACSLESNLEGLAGVLEADLPNYKSKILRLLCTVARLLPEKLTIYTTLVGLLNARNYNFGGEFVEAMIRQLKESLKANNYNEAVYLVRFLSDLVNCHVIAAPSMVAMFENFVSVTQEEDVPQVRRDWYVYAFLSSLPWVGKELYEKKDAEMDRIFANTESYLKRRQKTHVPMLQVWTADKPHPQEEYLDCLWAQIQKLKKDRWQERHILRPYLAFDSILCEALQHNLPPFTPPPHTEDSVYPMPRVIFRMFDYTDDPEGPVMPGSHSVERFVIEENLHCIIKSHWKERKTCAAQLVSYPGKNKIPLNYHIVEVIFAELFQLPAPPHIDVMYTTLLIELCKLQPGSLPQVLAQATEMLYMRLDTMNTTCVDRFINWFSHHLSNFQFRWSWEDWSDCLSQDPESPKPKFVREVLEKCMRLSYHQRILDIVPPTFSALCPANPTCIYKYGDESSNSLPGHSVALCLAVAFKSKATNDEIFSILKDVPNPNQDDDDDEGFSFNPLKIEVFVQTLLHLAAKSFSHSFSALAKFHEVFKTLAESDEGKLHVLRVMFEVWRNHPQMIAVLVDKMIRTQIVDCAAVANWIFSSELSRDFTRLFVWEILHSTIRKMNKHVLKIQKELEEAKEKLARQHKRRSDDDDRSSDRKDGVLEEQIERLQEKVESAQSEQKNLFLVIFQRFIMILTEHLVRCETDGTSVLTPWYKNCIERLQQIFLQHHQIIQQYMVTLENLLFTAELDPHILAVFQQFCALQA | soluble
18 | MSRSRSAAASSSQKPDDMDLMSPDGSASSPSAPNTPATNSGGFSSDRKKATHLRCERQRREAINSGYSDLKDLIPQTTTSLGCKTTNAAILFRACDFMSQLKTDISDADKQLAQLNAQAAALEMIASEYEQMASSVPDAGQSTIQVKMLQLLLDDCFTSFSSQVDFTTYATITRTLLSWVESLAPNAEPFKSTAGKMVTMPFTSP | not soluble
19 | MSRTIMLIPISAGVGLTSVSMGLLRAMERKGVSVSFYKPIAQPRTGDDQPDLTSTVMSRNSDIKIGQPMSMSAAETLIGSEKMDVLLETVVERYNQINKDAEVTLIEGLVPTRKHPFANQVNAEIANTLGAEIVFVATPGTDNPTQLKERIEVACSNFGGTKNKSISGVIINKLNAPVDEAGRTRPDLSEIFDDADHAKQANLEVMQIFNTSPIRVLGCVPWSIDLIATRAIDMAKHLKAE | not soluble
